# Experiment: soluble on expression in E. coli; label from the status in PepcDB or PDB records
row,Sequence,soluble on expression in E. coli
1,MSLKIDSIIFDLDGTLWNSIEGVCEAWKVVLKRHSNINKIITPKDIKASMGLQIDEIGKLLFPEEDEKMQLQLMNECCDEEKLYLGEHGGKLFAKLEPTLNKLSQKYKLFIVSNCEDGYIQSFFKAHGLNKYFTDFECSGVTGLSKGENNKLIIKRNSLKNPVYVGDTLKDFESAKIANIPFVYARYGFGDVNEYDYVIDSFEEMLTLDEGHHHHHH,soluble
2,MTKQLPPGQFETEKWPILHEGDVYQFDEATWNFRLFGDVKEEVSLSYQEVMQLPKTVSTIDMHCVTTWSKFDTTFEGIAFREFLRFVELDPDVKYVKIYGYLNGDRFGYSANLPLEALMGDDALFVYRWKDKHHDWQDISPKHGYPLRFIPPATFYLWKGAKWASGIRFMKEDEPGYWEERGYSMTANPFKEERFAEWVPRIRF,not soluble
3,MSENLHTIIHHVDFFPLRIRVFRNGDMFDHGRILVVTRKQFKHWIVFLDALTDLLRTATAVRRLFTTQGIPVHHFDDLETNGEYVAVETGPFVNVPYGQARFTLRLKRYNPIIRAPELIPTFLHSAESMDIYLKKEGYGTITGLPYPFDGILSRSPSASNIQIKHLQSHHIPPLKIGGSMEHLNELGTASWLGKNEKWMMGERVKLETQSQTLAQKSEKDEQIPRLDIKEVDGGSTTSEFMRNGEKSKSTTKLPRLLNSNRSFRREPVSAQKPPSEEPRSTSENLPPIDLKSIQISQNSQSTSQKKDSDTISIKTEEEVISILKPEKTTTESIVSSKISRKNAPKDDDEVRFHRSYQVTETTYTTRNSDETDRRKPENVEKTVESKNDRSVQDKSEKIEKKVPEKLSKPQKTETTKSKERAKWADQGNTTLKREKSIEKSTRQGKIDKSIEKLIDKSIDNTEKLSSQKPKIDMAKGELRKFDVDINEIPIRFEGPMVNKSRINTSRIVTSRSTTNLFVDEIVNEDELDDVIERAQLWDLNRRRQNMRQQHTQTSGSLCRSISAPRRRVVLFDPDFD,not soluble
4,MVRIALEGELFKGVTSLLDQADRTAGAEIFSALYELNDPRGLEVRLQAHDHGDPKIRNVVLGNERGKKNGVEVDDADSDNRHNLHAAGVNVTDRILPDGSIPHNKFMVLEENGKPTKVLTGSTNWTSTGLATQTNNTLIIKSPLVAARYKEYWTSVKHFSELGADAPKKLQDPLEHHHHHH,not soluble
5,MFDIILEIVILLFNLLIQNLISLIKYALPYSLLPKKDLYRKKVLITGAGNGLGKLLAQKFAARGATLILWDINLQSVDELKNEIRGNQGEAHSYEVNLCDPGKIAQVGQQVINDIGKVDILVNNAGIATAKMILDSSENEINRSFDVNVKAHFYTVQQFLPAMLKDNNGHIVTIASAAGKMGSSGLADYSSTKHAAVGFHDSLVAEIMESEKNGVKTTLVCPYYVHTSMFDATGAATRFPWIFPILDTDYVVQKIFEAIETEQEFLVTPRAFYLVFAGIQILPYKAQAMVAQFFGLVQNLERFHK,not soluble
6,SLLLVIDVGNTNTVLGVYHDGKLEYHWRIETSRHKTEDEFGMILRSLFDHSGLMFEQIDGIIISSVVPPIMFALERMCTKYFHIEPQIVGPGMKTGLNIKYDNPKEVGADRIVNAVAAIHLYGNPLIVVDFGTATTYCYIDENKQYMGGAIAPGITISTEALYSRAAKLPRIEITRPDNIIGKNTVSAMQSGILFGYVGQVEGIVKRMKWQAKQKQKVIATGGLAPLIANESDCIDIVDPFLTLKGLELIYERNRVGSV,soluble
7,MDKEQRNIVVFNASKRELFTSSSGYKSLQKKLRAQWKIQSIKEELTLEKLQGVKLWITAGPREKFTAAELEVLKQYLDSGGALLVMIGEGGELKYDTNINFLLEEFGIMVNNDAVIRNVYYKYFHPKEALVSNGVLNREISRAAGKVVTGVIDEENTGNNSQALTFVYPYGATLNVMKPAVAILSTGSVCFPLNRPVLAFHHSKNAGKLAVLGSCHMFSDQYLDKEENSRIMDVVFQWLTTDSIHLNQIDAEDPEITDYMMLPDTGSLSERLRVCLQEGDENPRDFTSLFDMSLLKLHTNTLPSVLDAYKQLNVKHEALQLITPQFETPLPPLQPAVFQPAFRDLPPPMLDLFDLDETFSSEKVRLAQLSNKCTDDDLEFYVRKCGDILGVTGNLDKDKRDAKHILEHVFFQVVEFKKLNEEHDVDTAEARFSMY,soluble
8,MRIEKVDTFPLFHKLSSPYGDANGLKSYRTSYLIRITTASGLTGWGECADWLPALDAGFKKRIIPYLIGKEASNRTELITVIKKWHQRAASAVSMALTDITAKKAGLSVCELWGGKLREQIPVYASFQSYSDRPDWSRHSLRLIEKAVRAGFKAVKLKAGGKMFSEDLAHIQAFQEMTGQSTGLILDANQSYDQAAARKWETWFSGWQNVLWFEEPMPFDDLAEYRMLRSALSVPVAGGENVKGAKPFLPIFLENAVDIAQPDVMHCEGTDEFQTVLKLARHFGKRVSPHSYDGGLSRIYAAFGQACLPHWTKMDGEDIEPLEWDAMENPFAQIVPVSIKDGCIQVPDKIEIDTELVEAYVWDGSSYI,soluble
9,MKLERVLPFARSLLQTAVKEGDYAVDATLGNGHDTCFLAEIVGDNGKVFGFDIQKEAIESSTTRLKEKELFERTVLVHDSHDTLLSILPEDAKGKVTGAIFNLGYLPGGDKHIVTKPNSTISAIEQLLEVMAPEGIIVLVIYHGHPEGQVERDAVLKFAEELDQKQAHVLRYGFINQQNNPPFIVAIEKRLEHHHHHH,soluble
10,MSLKKLLVIRNDKIGDFMLAWPSFAMLKASLPDCHITALVPKYTAALAELCPWIDAVIIDPGQQADKAQHKQLVQTVKAQQFDASINLFSTMYNALLVWKARIPYRLAPATKLAQIFYQHRIKQKRSQSAKPEYEYNLDLVRAFLRDIGQPIIEPNAPYLTFPAEQLAAQRSKLAEQLDIGPDKAWLFVHAGSGGSANNLSLEQYCELVTGVMDEHKQVVLTAGPGEEEKAAQLQSLLAEQGVLAALYAKNDGLVDFTRSLACAQLFIAGSTGPLHIAAALDVPTVGFFPAKRSATPLRWRPLNSQGKHIAFCPPPADDKANQENMGRIDMKSVLTELAPWLRSVQLEGHHHHHH,soluble
11,MGSDKIHHHHHHYATVEPLHINRFDKDLFRLIDTGDTTLQPELIKQYPEMLDIIGKGILNLQTIETPGFFEKMRNYYSEPTLKGLYRDAITQYDSVEDIEKSLGYGFAYLKENFPSMQIPAIYMHVSGFNQNVLVGDSLLSLSIDKYMGKDYPLYQDFFYDSQKLKMQRGLVVPDYLAGWLMSEYPFAGKENVLLDRMIYEGKIKYLLSQALGVPDAAELMGYTEQAYNWCKDNEGTIWKAIIERKHLYTPDQLTTSQYFEDTPTIFPGNDAPGNIGTWIGWQIINQYIKETGSTPEALMQNNDAQEILTASKYKPL,not soluble
12,MIVRSYLYEKLNGDVRCKTCWHRCIIKEGKTGICRVRKNEGGELLVLNYGMASSIALDPIEKKPLNNFKPGSKVLSFGSVSCNFRCLHCQNFEIAFADLDYSYLREIDPDTVLRMCIDRRADGVAWTYNEPAIWHEFALDSSKLVKESGYYVVYVTNGYMTPEAVDQFEGVLDAANVDVKAFSEDFYKKICKAKLEHVLETVEYLHRKGVFVELTYLIIPGENDSREELRDFCRWVADLSPKIPVHFSRFHPDYKMLDKPPTPVEKIEEAVEIAKKEGIEYVYAGNVWGHRYENTYCPNCGELLIEREGFYVYNINLVRDNPPKCPNCGYAQNIIL,not soluble
13,GPGSMEQPKGINILITGTPGTGKTSMAEMIAAELDGFQHLEVGKLVKENHFYTEYDTELDTHIIEEKDEDRLLDFMEPIMVSRGNHVVDYHSSELFPERWFHMVVVLHTSTEVLFERLTKRQYSEAKRAENMEAEIQCICEEEARDAYEDDIVLVRENDTLEQMAATVEEIRERVEVLKVERGL,soluble
14,MAHHHHHHMIDEKSKMYSKNDEFNVKKEMDMNLKCDNVNLDIWNTSFLNNETLNEDIFIHIGNKLLKMYYTTNHNIPSETLYSLLYEMKNGYNNVPYHNSIHAAMVTHHCNVLVSNLNTANILRDNELGALFVASLGHDIGHFGRTNIFLKNCCNFLSIIYNDKSILENYHCSYLFNILLKDENNIFKNEDPKCLLALRQQIIELILATDMSKHIKILAQFRIKSIKIKSYIEKNIILCLKMIIKAADLSHNCVDWSEHYQWVKRLVNEFYYEGDELFQMGYKINPLFDRNCHNNFIQIQRTFLKELVYPLIISLKTLDNTSITQDMINNVKRNYSKWTKIEKCQIKKKKYLNELLCNIPDNWARVYYPNLNIY,not soluble
15,MAHHHHHHMRTAVGSGAGASAAARAIPTAVPLTVADIDALARRDGVVSSDAVVSQQGTVASSRSVAELQAVVQSLQQENAELRERLERDRRQMLRSAMDVRDLHASQKQIRQRDLDRIEWLYCDNQRLRKILEMQGSAQELAGVLSPQPPAAAPATAHRPSLEGLRPLPEVPVELNAIEEEMPALEAEVVHLRGALVLKTQHLDDLWGHAERAEGYVQDLLQKLEHVQGIVREESDSCARRSKHLESTDQPLEDIVSFVSLRDHSSATQLTGPSSTTPFPFATVGRCEHIKRAAAVHGG,not soluble
16,AIAQRFLDSISAATQAKSPAEHETLVAMADLYAIITCVEYLERAWRANAVSDEDYTRNCSRLIAQFRATRQLVMDDVPSVISFLEEYHLAARAAMNRLQVGVPATVEHANSSDETRRRNFTAAAIQATEAFLTFRDALELGERSVDRLLPYLREILLVLGRMGAVFGTADGDATVQRERIVQWVRRLDAMHAYEQITEEDKRQLAHDVDTLYDTFRRRVGELEM,soluble
17,MRDYSELEIFEGNPLDKWNDIIFHASKKLSKKELERLLELLALLETFIEKEDLEEKFESFAKALRIDEELQQKIESRKTDIVIQSMANILSGSGSGSGSSGNPLDKWNDIIFHASKKLSKKELERLLELLALLETFIEKEDLEEKFESFAKALRIDEELQQKIESRKTDIVIQSMANILSGLEHHHHHH,soluble
18,MGSDKIHHHHHHMQGDKHRRRVPFASRAEAHARYGAILTEANRHGAQVVLATLAELGRLDLFFLLVVLLKRKDADNDWCFARCREVAASPDGHLDLWAREHYKSTIITFALTIQDILCTPDITVGIFSHSRPGAKAFLQQIKREFEENPVLRAAYPDVLWDNPRTDAPQWSLDGGIVVKRASNPKEATVEAWGLVDGQPIGKHFSLLVYDDVVTPESVTTPDQIRKTTDALAVSYNLGAHGGRRRFIGTRYHFSDTYKDILDRETAVPRIYPATVDGSVTGLPHFLSPEALAAKRRDMGPYIFGCQMLQNPKADDAAGFKAEWLRYWEPSRDLCERMNRYIIVDPAHSKKAAADYTVMWVVGFGADGYRYVIEGVRDRLNLAERTRELFRLVRAHRPLCVGYERYGLQADVEHIRGEQDRTGYHFDIVELGGAMPKADRIRRLVPLFEQGRIFLPGRMSYRDVEGRWRDLTGEFVQEEYLAFPVCGHDDMLDCLARQVDEALGAVFPDEDDYAASVGGMPNDPHAGALTSLGFDDYDPLGHMRASS,not soluble
19,MSLSSLEGQENSFTINSVDMKSLPDWTVQNGKNLTLQCFADVSTTSHVKPQHQMLFYKDDVLFYNISSMKSTESYFIPEVRIYDSGTYKCTVIVNNKEKTTAEYQLLVEGVPSPRVTLDKKEAIQGGIVRVNCSVPEEKAPIHFTIEKLELNEKMVKLKREKNSRDQNFVILEFPVEEQDRVLSFRCQARIISGIHMQTSESTKSELVTVTESFSTPKFHISPTGMIMEGAQLHIKCTIQVTHLAQEFPEIIIQKDKAIVAHNRHGNKAVYSVMAMVEHSGNYTCKVESSRISKVSSIVVNITELFSKPELESSFTHLDQGERLNLSCSIPGAPPANFTIQKEDTIVSQTQDFTKIASKSDSGTYICTAGIDKVVKKSNTVQIVVCEMLSEGHHHHHH,not soluble
20,KRLQQKIEKGELDRMPEVKEADIECCGQHEVCEKDSLLAAVSKKIEYYDDEELDQFIGKEANAYTDEETNQFRDVLYTMQDIDVAGWVRSLQLRGIELPDDLKDEVFLIIGERRNG,soluble
